Test results reported in article PMC10949841.
Values joined by “and” are separate entries in the source; they are usually repeats but may differ in a detail not shown here. Identical values can stand only once.

Legend:
[1] = target: HAdV-C5 hexon labeled with AlexaFluor594 (human adenovirus C5 (HAdV-C5)) (UniProt P04133); assay: MST; hexon labeled with AlexaFluor594 at constant amount, 16 concentrations of hLF or hLF mutant (1:1 serial dilution); 20 mM HEPES pH 7.2, 5 mM NaCl, 0.05% Tween 20; 25°C; Monolith NT.115; n = 2
[2] = target: HAdV-C5 hexon (human adenovirus C5 (HAdV-C5)) (UniProt P04133); assay: native MS; 0.5 µM hexon:hLF complex purified in buffer D, exchanged into ammonium acetate pH 7.0 and diluted with water to 5.85 mM ammonium acetate; nanoelectrospray, Orbitrap Q Exactive UHMR
[3] = target: HAdV-C5 hexon (human adenovirus C5 (HAdV-C5)) (UniProt P04133); assay: single-particle cryo-EM, 2D class averages; freshly purified hexon:hLF complex (1 mg/mL) on Au Quantifoil R1.2/1.3 grids, Talos Arctica; top and bottom views only, no 3D reconstruction; 2D classes used to refine a hybrid model
[4] = target: HAdV-C5 hexon (human adenovirus C5 (HAdV-C5)) (UniProt P04133); assay: native MS; 0.5 µM hexon:hLF complex purified in buffer D, exchanged into and diluted with 20 mM ammonium acetate pH 7.0; nanoelectrospray, Orbitrap Q Exactive UHMR

Sequence of HAdV-C5 hexon (human adenovirus C5 (HAdV-C5)) (P04133 whole entry): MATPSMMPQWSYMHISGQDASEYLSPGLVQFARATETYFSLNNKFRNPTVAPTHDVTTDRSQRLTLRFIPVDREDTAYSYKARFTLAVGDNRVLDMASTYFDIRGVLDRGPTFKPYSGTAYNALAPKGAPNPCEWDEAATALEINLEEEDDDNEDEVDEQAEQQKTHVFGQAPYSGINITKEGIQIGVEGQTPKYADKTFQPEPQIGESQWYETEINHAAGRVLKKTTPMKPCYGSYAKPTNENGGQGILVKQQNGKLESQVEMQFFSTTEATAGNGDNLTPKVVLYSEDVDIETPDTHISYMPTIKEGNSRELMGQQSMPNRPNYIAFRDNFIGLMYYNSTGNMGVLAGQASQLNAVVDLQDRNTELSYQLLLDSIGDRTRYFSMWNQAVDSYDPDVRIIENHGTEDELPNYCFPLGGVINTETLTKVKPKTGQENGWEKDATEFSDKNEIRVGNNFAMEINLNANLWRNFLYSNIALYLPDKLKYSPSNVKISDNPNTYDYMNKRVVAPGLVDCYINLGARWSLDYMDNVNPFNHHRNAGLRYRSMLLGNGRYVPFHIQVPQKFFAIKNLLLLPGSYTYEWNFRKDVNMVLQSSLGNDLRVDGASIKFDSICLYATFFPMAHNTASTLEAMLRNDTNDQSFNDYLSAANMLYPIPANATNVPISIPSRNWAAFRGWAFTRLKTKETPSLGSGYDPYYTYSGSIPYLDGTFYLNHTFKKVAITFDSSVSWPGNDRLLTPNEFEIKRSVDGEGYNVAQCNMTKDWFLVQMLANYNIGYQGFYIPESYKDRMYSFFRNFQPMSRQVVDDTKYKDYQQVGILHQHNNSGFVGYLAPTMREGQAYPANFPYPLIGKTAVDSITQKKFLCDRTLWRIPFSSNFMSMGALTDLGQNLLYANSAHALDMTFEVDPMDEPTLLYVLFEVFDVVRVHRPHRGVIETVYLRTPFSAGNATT
Sequence of HAdV-C5 hexon labeled with AlexaFluor594 (human adenovirus C5 (HAdV-C5)) (P04133 whole entry): as above

## hLF mut7 (N673A/S678A) (natural protein)
[1]
  reduction of binding affinity against WT hLF: 40%

## human lactoferrin (hLF), wild type (natural protein)
[2]
  stoichiometry N (hLF per hexon trimer): 1 and 2
[3]
  stoichiometry N (hLF per hexon trimer): 2 and 1
[4]
  stoichiometry N (hLF per hexon trimer): 1

## hLF mut5 (R24S/R27A/K28A/R30A) (natural protein)
[1]
  affinity relative to WT hLF: < 20%

## hLF mut8 (E687A/K691A) (natural protein)
[1]
  reduction of binding affinity against WT hLF: 70%
